From US20230346961A1, “GLP-1 AND GIP RECEPTOR CO-AGONISTS” (Novo Nordisk A/S, priority 2020, published 2023)
Starred links: 1 amine or outer side, 2 acyl side, 3 side chain; linkers in the order of their positions; H or OH if unused. Non-standard residues stand in square brackets, D forms with d. Groups on a side chain read outwards from the residue. No end group written: not given here. *: point of attachment. C18 diacid = O=C(O)CCCCCCCCCCCCCCCCC(=O)*; γGlu = O=C(O)[C@H](CCC(=O)[*:2])N[*:1]; εLys = N[C@@H](CCCCN[*:1])C(=O)[*:2]; Aib = CC(C)(N)C(=O)O

What was measured:
Assay in all cases: cell-based or functional assay
[1] = biological target: T1, human glucose-dependent insulinotropic polypeptide receptor (human) (UniProt P48546)
T1 sequence (looked up): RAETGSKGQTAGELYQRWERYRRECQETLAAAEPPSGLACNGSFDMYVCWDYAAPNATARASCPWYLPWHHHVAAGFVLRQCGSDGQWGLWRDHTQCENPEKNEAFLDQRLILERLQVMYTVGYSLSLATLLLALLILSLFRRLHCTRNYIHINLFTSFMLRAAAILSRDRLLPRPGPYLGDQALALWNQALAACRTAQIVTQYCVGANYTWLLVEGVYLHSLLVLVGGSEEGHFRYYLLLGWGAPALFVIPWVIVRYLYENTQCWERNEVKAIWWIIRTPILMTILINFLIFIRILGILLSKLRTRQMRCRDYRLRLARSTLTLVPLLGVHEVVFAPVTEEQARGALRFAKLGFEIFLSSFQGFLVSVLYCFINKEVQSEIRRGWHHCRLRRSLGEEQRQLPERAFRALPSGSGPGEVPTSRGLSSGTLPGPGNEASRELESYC

[2] = biological target: T2, mouse glucose-dependent insulinotropic polypeptide receptor (mouse) (UniProt Q0P543)
T2 sequence (looked up): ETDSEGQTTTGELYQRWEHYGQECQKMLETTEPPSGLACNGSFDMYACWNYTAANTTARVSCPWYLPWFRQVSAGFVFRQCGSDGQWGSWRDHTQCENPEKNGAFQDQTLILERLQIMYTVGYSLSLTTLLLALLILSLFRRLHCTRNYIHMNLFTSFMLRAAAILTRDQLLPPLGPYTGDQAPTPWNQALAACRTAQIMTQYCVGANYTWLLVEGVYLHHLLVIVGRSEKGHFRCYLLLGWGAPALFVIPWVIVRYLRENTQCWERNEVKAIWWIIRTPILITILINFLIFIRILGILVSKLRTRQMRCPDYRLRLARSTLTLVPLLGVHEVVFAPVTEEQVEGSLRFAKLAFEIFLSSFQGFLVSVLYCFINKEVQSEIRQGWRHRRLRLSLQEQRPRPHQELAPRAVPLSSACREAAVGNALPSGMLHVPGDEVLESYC

[3] = biological target: human glucagon-like peptide 1 receptor (human, UniProt P43220 24-463)
[4] = biological target: T3, human glucose-dependent insulinotropic polypeptide receptor (human, UniProt P48546 22-466)
T3 sequence (looked up): T1 sequence (looked up)

human glucagon receptor = human glucagon receptor (human, UniProt P47871 26-477)
[5] = biological target: T4, mouse glucagon-like peptide 1 receptor (mouse, UniProt O35659 22-463)
T4 sequence (looked up): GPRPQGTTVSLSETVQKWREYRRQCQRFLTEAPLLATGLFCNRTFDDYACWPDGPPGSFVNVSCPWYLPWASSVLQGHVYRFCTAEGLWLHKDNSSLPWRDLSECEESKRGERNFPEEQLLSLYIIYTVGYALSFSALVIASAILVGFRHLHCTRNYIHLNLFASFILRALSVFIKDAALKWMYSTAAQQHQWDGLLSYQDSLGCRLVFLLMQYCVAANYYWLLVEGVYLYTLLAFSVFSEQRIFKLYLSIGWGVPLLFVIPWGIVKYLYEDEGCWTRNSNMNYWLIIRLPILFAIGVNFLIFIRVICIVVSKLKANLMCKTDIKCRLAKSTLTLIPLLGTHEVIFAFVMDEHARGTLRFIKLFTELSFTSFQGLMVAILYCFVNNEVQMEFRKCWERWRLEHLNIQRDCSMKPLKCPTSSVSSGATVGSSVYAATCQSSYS

[6] = biological target: T5, mouse glucose-dependent insulinotropic polypeptide receptor (mouse, UniProt Q0P543 19-460)
T5 sequence (looked up): T2 sequence (looked up)

“human GIP (from UniProt P09681 52-93) (ligand)” gave a hGIPR, CRE Luc 0% HSA EC50 [1] of 0.0085 nM and a hGIPR, CRE Luc 1% HSA EC50 [1] of 0.0038 nM.

“mouse GIP (from UniProt P48756 44-85) (ligand)” gave a mGIPR, CRE Luc EC50 [2] of 0.0354 nM.

B1: Compound #9 (peptide)
peptide: Y[Aib]EGTFTSDYSIYLDKQAA[Aib]K([εLys-εLys-γGlu-C18 diacid])FVNWLLAGGPSSGAPPPS-NH2
modifications: N-terminus assumed
SMILES: CC[C@H](C)[C@H](NC(=O)[C@H](CO)NC(=O)[C@H](Cc1ccc(O)cc1)NC(=O)[C@H](CC(=O)O)NC(=O)[C@H](CO)NC(=O)[C@@H](NC(=O)[C@H](Cc1ccccc1)NC(=O)[C@@H](NC(=O)CNC(=O)[C@H](CCC(=O)O)NC(=O)C(C)(C)NC(=O)[C@@H](N)Cc1ccc(O)cc1)[C@@H](C)O)[C@@H](C)O)C(=O)N[C@@H](Cc1ccc(O)cc1)C(=O)N[C@@H](CC(C)C)C(=O)N[C@@H](CC(=O)O)C(=O)N[C@@H](CCCCN)C(=O)N[C@@H](CCC(N)=O)C(=O)N[C@@H](C)C(=O)N[C@@H](C)C(=O)NC(C)(C)C(=O)N[C@@H](CCCCNC(=O)[C@@H](N)CCCCNC(=O)[C@@H](N)CCCCNC(=O)CC[C@H](NC(=O)CCCCCCCCCCCCCCCCC(=O)O)C(=O)O)C(=O)N[C@@H](Cc1ccccc1)C(=O)N[C@H](C(=O)N[C@@H](CC(N)=O)C(=O)N[C@@H](Cc1c[nH]c2ccccc12)C(=O)N[C@@H](CC(C)C)C(=O)N[C@@H](CC(C)C)C(=O)N[C@@H](C)C(=O)NCC(=O)NCC(=O)N1CCC[C@H]1C(=O)N[C@@H](CO)C(=O)N[C@@H](CO)C(=O)NCC(=O)N[C@@H](C)C(=O)N1CCC[C@H]1C(=O)N1CCC[C@H]1C(=O)N1CCC[C@H]1C(=O)N[C@@H](CO)C(N)=O)C(C)C
B1 was tested, and the “hGLP-1R, CRE Luc 0% HSA EC50” value [3] was 0.0067 nM, the “hGLP-1R, CRE Luc 1% HSA EC50” value [3] was 0.11 nM and the “hGIPR, CRE Luc 0% HSA EC50” value [4] was 0.0116 nM. For the same molecule, the “hGIPR, CRE Luc 1% HSA EC50” value [4] was 0.135 nM, the “hGcgR, CRE Luc EC50” value (human glucagon receptor) was greater than 10 nM and the “mGLP-1R, CRE Luc EC50” value [5] was 0.0025 nM. For the same molecule, the “mGIPR, CRE Luc EC50” value [6] was 0.068 nM.

B2: Compound #8 (peptide)
peptide: Ac-[dY]AEGTFTSDYSIYLDKQAA[Aib]K([εLys-εLys-γGlu-C18 diacid])FVNWLLAGGPSSGAPPPS-NH2
SMILES: CC[C@H](C)[C@H](NC(=O)[C@H](CO)NC(=O)[C@H](Cc1ccc(O)cc1)NC(=O)[C@H](CC(=O)O)NC(=O)[C@H](CO)NC(=O)[C@@H](NC(=O)[C@H](Cc1ccccc1)NC(=O)[C@@H](NC(=O)CNC(=O)[C@H](CCC(=O)O)NC(=O)[C@H](C)NC(=O)[C@@H](Cc1ccc(O)cc1)NC(C)=O)[C@@H](C)O)[C@@H](C)O)C(=O)N[C@@H](Cc1ccc(O)cc1)C(=O)N[C@@H](CC(C)C)C(=O)N[C@@H](CC(=O)O)C(=O)N[C@@H](CCCCN)C(=O)N[C@@H](CCC(N)=O)C(=O)N[C@@H](C)C(=O)N[C@@H](C)C(=O)NC(C)(C)C(=O)N[C@@H](CCCCNC(=O)[C@@H](N)CCCCNC(=O)[C@@H](N)CCCCNC(=O)CC[C@H](NC(=O)CCCCCCCCCCCCCCCCC(=O)O)C(=O)O)C(=O)N[C@@H](Cc1ccccc1)C(=O)N[C@H](C(=O)N[C@@H](CC(N)=O)C(=O)N[C@@H](Cc1c[nH]c2ccccc12)C(=O)N[C@@H](CC(C)C)C(=O)N[C@@H](CC(C)C)C(=O)N[C@@H](C)C(=O)NCC(=O)NCC(=O)N1CCC[C@H]1C(=O)N[C@@H](CO)C(=O)N[C@@H](CO)C(=O)NCC(=O)N[C@@H](C)C(=O)N1CCC[C@H]1C(=O)N1CCC[C@H]1C(=O)N1CCC[C@H]1C(=O)N[C@@H](CO)C(N)=O)C(C)C
B2 was tested, and the “hGLP-1R, CRE Luc 0% HSA EC50” value [3] was 0.0299 nM, the “hGLP-1R, CRE Luc 1% HSA EC50” value [3] was 0.699 nM and the “hGIPR, CRE Luc 0% HSA EC50” value [4] was 0.0047 nM. The “hGIPR, CRE Luc 1% HSA EC50” value [4] was 0.0341 nM, the “mGLP-1R, CRE Luc EC50” value [5] was 0.017 nM and the “mGIPR, CRE Luc EC50” value [6] was 0.0233 nM.
